Drawing on patent US20050042664A1 (AstraZeneca / MedImmune, published 2005), this text covers Kd, koff and kon for five molecules.

This assay concerns the target T1, human EphA2 (human, UniProt P29317 24-534, limits assumed).
T1 construct: Target of the BIAcore analysis as named in the text
Put plainly: BIAcore; format not stated. (Surface plasmon resonance follows binding to a sensor surface in real time, without labels.)

T1 sequence (P29317 24-534 limits assumed): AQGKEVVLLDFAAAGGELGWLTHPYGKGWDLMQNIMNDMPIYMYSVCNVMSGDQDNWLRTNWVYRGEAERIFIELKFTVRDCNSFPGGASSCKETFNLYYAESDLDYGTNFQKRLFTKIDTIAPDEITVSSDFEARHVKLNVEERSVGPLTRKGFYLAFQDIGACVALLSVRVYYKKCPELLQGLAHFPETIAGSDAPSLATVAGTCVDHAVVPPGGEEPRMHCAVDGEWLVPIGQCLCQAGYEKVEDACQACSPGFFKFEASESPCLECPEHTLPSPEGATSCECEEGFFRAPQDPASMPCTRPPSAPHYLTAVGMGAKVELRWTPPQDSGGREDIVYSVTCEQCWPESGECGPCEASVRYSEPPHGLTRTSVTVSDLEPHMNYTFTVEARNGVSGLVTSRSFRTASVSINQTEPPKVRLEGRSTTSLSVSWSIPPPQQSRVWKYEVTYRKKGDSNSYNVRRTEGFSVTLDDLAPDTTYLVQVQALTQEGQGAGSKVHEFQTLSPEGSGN

B1: Humanized version I of EP101 (hu IgG1) (antibody, V domains shown)
VH: QMQLVQSGPEVKKPGTSVKVSCKASGFTFTDYSMNWVRQARGQRLEWLGFIRNKANDYTTEYSASVKGRVTITRDMSTSTAYMELSSLRSEDTAVYYCARYPRYHAMDSWGQGTSVTVSS
VL: DIVMTQSPSSLSASVGDRVTIICRASQSISNNLHWYQQKPGKAPKLLIKYVFQSISGVPSRFSGSGSGTDFTFTISSLQPEDFATYYCQQSNSWPLTFGGGTKVEIK
As for B1, the Kd (usually the concentration at which binding is half-saturated) was found to be 0.7 nM; the koff (commonly the rate constant with which the complex falls apart) was found to be 3.76e-05 s⁻¹; the kon (as a rule, the second-order rate constant of association) was determined as 53200 M⁻¹ s⁻¹.

B2: Humanized version II of EP101 (hu IgG1) (antibody, V domains shown)
VH: QMQLVQSGPEVKKPGTSVKVSCKASGFTFTDYSMNWVRQARGQRLEWIGFIRNKANDYTTEYSASVKGRVTITRDMSTSTAYMELSSLRSEDTAVYYCARYPRYHAMDSWGQGTSVTVSS
VL: DIQMTQSPSSLSASVGDRVTITCRASQSISNNLHWYQQKPGKAPKLLIKYVFQSISGVPSRFSGSGSGTDFTFTISSLQPEDFATYYCQQSNSWPLTFGGGTKVEIK
In turn, B2 had a Kd of 1.2 nM, a koff of 4.13e-05 s⁻¹ and an association rate constant (kon) of 35600 M⁻¹ s⁻¹.

B3: Humanized version III of EP101 (hu IgG1) (antibody, V domains shown)
VH: QMQLVQSGPEVKKPGTSVKVSCKASGFTFTDYSMNWVRQARGQRLEWIGFIRNKANDYTTEYSASVKGRVTITRDMSTSTAYMELSSLRSEDTAVYYCARYPRYHAMDSWGQGTSVTVSS
VL: DIVMTQSPSSLSASVGDRVTIICRASQSISNNLHWYQQKPGKAPKLLIKYVFQSISGVPSRFSGSGSGTDFTFTISSLQPEDFATYYCQQSNSWPLTFGGGTKVEIK
As to B3, the Kd is 1.3 nM, the koff was 7.62e-05 s⁻¹ and the kon was 60000 M⁻¹ s⁻¹.

B4: Mouse version of EP101 (mouse IgG) (antibody, V domains shown)
VH: EVKLVESGGGLVQPGGSLSLSCAASGFTFTDYSMNWVRQPPGKALEWLGFIRNKANDYTTEYSASVKGRFTISRDNSQSILYLQMNALRAEDSATYYCVRYPRYHAMDSWGQGTSVTVSS
VL: DIVLTQSPATLSVTPGDSVNLSCRASQSISNNLHWYQQKSHESPRLLIKYVFQSISGIPSRFSGSGSGTDFTLSINSVETEDFGMYFCQQSNSWPLTFGAGTKLELK
notes: Mouse IgG; also called anti-human EphA2 monoclonal antibody EP101; parental murine antibody
Turning to B4, the Kd turned out to be 0.3 nM, the koff worked out at 0.000101 s⁻¹ and the kon turned out to be 330000 M⁻¹ s⁻¹.

B5: Chimaeric version of EP101 (hu IgG1) (antibody, V domains shown)
VH: EVKLVESGGGLVQPGGSLSLSCAASGFTFTDYSMNWVRQPPGKALEWLGFIRNKANDYTTEYSASVKGRFTISRDNSQSILYLQMNALRAEDSATYYCVRYPRYHAMDSWGQGTSVTVSS
VL: DIVLTQSPATLSVTPGDSVNLSCRASQSISNNLHWYQQKSHESPRLLIKYVFQSISGIPSRFSGSGSGTDFTLSINSVETEDFGMYFCQQSNSWPLTFGAGTKLELK
notes: Chimeric Fab cloned and expressed as a full length human IgG1; also called chimeric version of anti-EphA2 antibody
B5: the Kd was determined as 0.3 nM, the koff was 8.04e-05 s⁻¹ and the kon was determined as 242000 M⁻¹ s⁻¹.
